Measured values as given in paper doi:10.1101/2021.03.29.437529.

Columns and labels:
[1] = target: PniDAH7PS, the C-terminal CM-linked 3-deoxy-D-arabino-heptulosonate 7-phosphate synthase (DAH7PS) from Prevotella nigrescens, wild type (Prevotella nigrescens); test: SEC-SAXS
[2] = target: PniDAH7PS^Δ5AA, a truncated PniDAH7PS variant with removal of C327-T331 residues (Prevotella nigrescens); test: SEC-SAXS

Substance	stoichiometry N [1]	stoichiometry N [2]
PniDAH7PS, the C-terminal CM-linked 3-deoxy-D-arabino-heptulosonate 7-phosphate synthase (DAH7PS) from Prevotella nigrescens, wild type (enzyme)	2	–
PniDAH7PS^Δ5AA, a truncated PniDAH7PS variant with removal of C327-T331 residues (enzyme)	–	2
